Positions count from the first letter of the chain named. Read-outs that look alike come from different tables or passages of the source.
T1: human factor XIIa (human, UniProt P00748 20-615, biotinylated with Biotin Ester (Zymed); sites not stated)
T1 chain: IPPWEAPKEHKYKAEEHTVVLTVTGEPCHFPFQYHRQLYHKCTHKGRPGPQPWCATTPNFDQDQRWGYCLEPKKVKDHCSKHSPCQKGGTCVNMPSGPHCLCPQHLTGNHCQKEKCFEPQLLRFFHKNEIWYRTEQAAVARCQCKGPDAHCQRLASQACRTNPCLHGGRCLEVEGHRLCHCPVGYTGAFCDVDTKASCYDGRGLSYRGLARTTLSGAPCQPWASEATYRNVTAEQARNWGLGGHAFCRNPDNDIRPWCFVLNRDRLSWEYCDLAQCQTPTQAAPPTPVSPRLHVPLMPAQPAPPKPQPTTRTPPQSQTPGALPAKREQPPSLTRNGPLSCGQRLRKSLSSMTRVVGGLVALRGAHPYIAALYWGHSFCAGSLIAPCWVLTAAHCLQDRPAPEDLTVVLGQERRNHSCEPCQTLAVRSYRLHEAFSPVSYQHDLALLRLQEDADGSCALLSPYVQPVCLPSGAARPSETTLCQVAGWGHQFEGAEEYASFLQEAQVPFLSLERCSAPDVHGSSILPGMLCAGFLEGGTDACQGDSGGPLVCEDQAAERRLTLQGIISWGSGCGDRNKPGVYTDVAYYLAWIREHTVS

T2: human factor Xa (human, UniProt P00742 41-179; P00742 235-488)
T2 chain 1: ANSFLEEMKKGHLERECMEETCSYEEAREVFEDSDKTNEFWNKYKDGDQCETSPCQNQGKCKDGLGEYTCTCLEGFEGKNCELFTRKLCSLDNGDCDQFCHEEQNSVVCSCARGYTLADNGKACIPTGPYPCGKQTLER
T2 chain 2: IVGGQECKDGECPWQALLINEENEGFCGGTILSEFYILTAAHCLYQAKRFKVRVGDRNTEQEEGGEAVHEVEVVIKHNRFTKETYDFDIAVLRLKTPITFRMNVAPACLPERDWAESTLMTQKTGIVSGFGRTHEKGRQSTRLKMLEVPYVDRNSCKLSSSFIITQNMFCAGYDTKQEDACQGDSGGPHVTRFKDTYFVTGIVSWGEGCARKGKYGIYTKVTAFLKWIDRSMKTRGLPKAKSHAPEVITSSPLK

B1: TW6163 (protein)
chain: EVVREVCSEQAETGPCRAMHSRWYFDVTEGKCAPFFYGGCGGNRNNFDTEEYCMAVCGSAI
B2: TW6166 (protein)
chain: B1 chain with M19A, H20I, S21Y
B3: AL302 (protein)
chain: B1 chain with H20I, F36G
B4: TW6142 (protein)
chain: B1 chain with H20I, F36V
B5: TW6211 (protein)
chain: B1 chain with H20I, R22K
B6: TW6165 (protein)
chain: B1 chain with M19A, H20I, S21W
B7: TW6157 (protein)
chain: B1 chain with H20I, G41S
B8: TW6168 (protein)
chain: B1 chain with H20I, S21L
B9: TW6194 (protein)
chain: B1 chain with H20I, S21E
B10: TW6210 (protein)
chain: B1 chain with H20I, S21Q
B11: TW6158 (protein)
chain: B1 chain with H20I, G41T
B12: TW6141 (protein)
chain: B1 chain with H20I, G41Q
B13: BG028 (protein)
chain: B1 chain with M19L, H20I, S21Y
B14: DD128 (protein)
chain: B1 chain with H20I, R22L
B15: TW6209 (protein)
chain: B1 chain with H20I, R22H
B16: TW6180 (protein)
chain: B1 chain with H20F
B17: DD102 (protein)
chain: B1 chain with H20I, S21P
B18: DD103 (protein)
chain: B1 chain with H20I, S21F
B19: TW6149 (protein)
chain: B1 chain with H20I, R44A
B20: BG012 (protein)
chain: B1 chain with H20I, R22T
B21: TW6148 (protein)
chain: B1 chain with H20I, N43A
B22: BG001 (protein)
chain: B1 chain with H20L
B23: TW6154 (protein)
chain: B1 chain with H20I, G41L
B24: DD105 (protein)
chain: B1 chain with H20I, S21W
B25: TW6155 (protein)
chain: B1 chain with H20I, G41M
B26: DD100 (protein)
chain: B1 chain with H20I, G41C
B27: AL301 (protein)
chain: B1 chain with H20I, F36L
B28: CL006 (protein)
chain: B1 chain with H20I, R22A
B29: TW6138 (protein)
chain: B1 chain with H20I, G41K
B30: TW6172 (protein)
chain: B1 chain with H20A
B31: TW6182 (protein)
chain: B1 chain with H20I, S21H
B32: TW6181 (protein)
chain: B1 chain with H20K
B33: TW6140 (protein)
chain: B1 chain with H20I, G41N
B34: DD104 (protein)
chain: B1 chain with H20I, S21Y
B35: DD111 (protein)
chain: B1 chain with M19S, H20I
B36: TW118 (protein)
chain: EVCSEQAETGPCRAMISRWYFDVTEGKCAPFFYGGCRGNRNNFDTEEYCMAVCGSAI
B37: TW101 (protein)
chain: B36 chain with R13K, R37G
B38: TW124 (protein)
chain: B36 chain with R37G, R40S
B39: TW116 (protein)
chain: B36 chain with S17I, R37G
B40: TW106 (protein)
chain: B36 chain with M15R, R37G

How the values were obtained:
Assay in all cases: enzyme inhibition
human factor XIIa [1] = biological target: T1, human factor XIIa
human plasma kallikrein [2] = biological target: T3, human plasma kallikrein (human, UniProt P03952 20-638)
human factor Xa [3] = biological target: T2, human factor Xa
human factor XIIa [4] = biological target: T1, human factor XIIa
human plasma kallikrein [5] = biological target: T3, human plasma kallikrein; remark: listed apart in the source
human factor Xa [6] = biological target: T2, human factor Xa
human factor XIIa [7] = biological target: T1, human factor XIIa
human plasma kallikrein [8] = biological target: T3, human plasma kallikrein; remark: listed apart in the source
human plasma kallikrein [9] = biological target: T3, human plasma kallikrein; remark: listed apart in the source

T3 sequence (P03952 20-638): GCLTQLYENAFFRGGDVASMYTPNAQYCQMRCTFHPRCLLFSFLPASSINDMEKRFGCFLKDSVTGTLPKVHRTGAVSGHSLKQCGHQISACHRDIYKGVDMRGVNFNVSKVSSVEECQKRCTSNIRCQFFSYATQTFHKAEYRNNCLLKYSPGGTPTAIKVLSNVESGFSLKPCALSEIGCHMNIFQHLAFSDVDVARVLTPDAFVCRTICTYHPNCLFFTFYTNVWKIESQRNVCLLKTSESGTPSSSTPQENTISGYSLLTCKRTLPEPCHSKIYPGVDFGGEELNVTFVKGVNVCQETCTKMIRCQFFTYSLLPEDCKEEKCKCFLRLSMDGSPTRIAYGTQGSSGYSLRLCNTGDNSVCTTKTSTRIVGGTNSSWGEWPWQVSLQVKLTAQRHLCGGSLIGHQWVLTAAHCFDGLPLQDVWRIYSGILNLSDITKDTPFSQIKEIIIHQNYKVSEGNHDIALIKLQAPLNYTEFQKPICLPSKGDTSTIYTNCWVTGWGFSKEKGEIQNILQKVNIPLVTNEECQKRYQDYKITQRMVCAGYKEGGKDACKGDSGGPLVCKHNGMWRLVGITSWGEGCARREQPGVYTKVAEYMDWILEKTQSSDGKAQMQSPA

| Binder | Ki (human factor XIIa [1]) | Ki (human plasma kallikrein [2]) | Ki (human plasma kallikrein [5]) | other results |
| --- | --- | --- | --- | --- |
| B1 | 4530 nM | 4.7 nM |  | Ki (human factor Xa [3]): 457 nM |
| B2 |  |  |  | Ki (human factor XIIa [4]): 73 nM |
| B3 |  |  | 39 nM | Ki (human factor Xa [6]): 316 nM |
| B4 |  |  | 18 nM | Ki (human factor XIIa [7]): 7970 nM; Ki (human factor Xa [6]): 225 nM |
| B5 |  |  | 184 nM | Ki (human factor XIIa [7]): 402 nM |
| B6 |  |  |  | Ki (human factor XIIa [4]): 206 nM |
| B7 |  |  | 40 nM | Ki (human factor XIIa [7]): 511 nM; Ki (human factor Xa [6]): 168 nM |
| B8 | 3520 nM | 25.8 nM |  | Ki (human factor Xa [3]): 395 nM |
| B9 |  | 70.8 nM |  |  |
| B10 | 277 nM | 54 nM |  |  |
| B11 |  |  | 29 nM |  |
| B12 |  |  | 42 nM |  |
| B13 |  |  |  | Ki (human factor XIIa [4]): 93.8 nM |
| B14 |  |  | 44 nM | Ki (human factor Xa [6]): 37 nM |
| B15 |  |  | 81 nM | Ki (human factor XIIa [7]): 184 nM; Ki (human factor Xa [6]): 613 nM |
| B16 | 885 nM | 70 nM |  | Ki (human factor Xa [3]): 39 nM |
| B17 | 315 nM | 16 nM |  |  |
| B18 | 2130 nM | 17 nM |  | Ki (human factor Xa [3]): 110 nM |
| B19 |  |  |  | Ki (human plasma kallikrein [8]): 54 nM |
| B20 | 40 nM |  |  | Ki (human factor Xa [3]): 116 nM |

| Binder | Ki (human factor XIIa [1]) | Ki (human plasma kallikrein [2]) | Ki (human plasma kallikrein [5]) | other results |
| --- | --- | --- | --- | --- |
| B21 |  |  |  | Ki (human plasma kallikrein [8]): 40 nM |
| B22 | 489 nM | 38 nM |  | Ki (human factor Xa [3]): 204 nM |
| B23 |  |  | 11 nM | Ki (human factor XIIa [7]): 915 nM; Ki (human factor Xa [6]): 39 nM |
| B24 | 198 nM | 18 nM |  | Ki (human factor Xa [3]): 320 nM |
| B25 |  |  | 11 nM | Ki (human factor Xa [6]): 27 nM |
| B26 |  |  | 15 nM |  |
| B27 |  |  | 216 nM | Ki (human factor XIIa [7]): 1560 nM |
| B28 | 89600 nM | 110 nM |  | Ki (human factor Xa [3]): 133 nM |
| B29 |  |  | 18 nM | Ki (human factor XIIa [7]): 921 nM; Ki (human factor Xa [6]): 309 nM |
| B30 |  | 315 nM |  | Ki (human factor Xa [3]): 1460 nM |
| B31 | 752 nM | 36 nM |  |  |
| B32 | 1510 nM | 150 nM |  |  |
| B33 |  |  | 35 nM | Ki (human factor XIIa [7]): 475 nM |
| B34 | 237 nM | 15 nM |  | Ki (human factor Xa [3]): 345 nM |
| B35 |  |  |  | Ki (human plasma kallikrein [9]): 5.6 nM |
| B36 |  |  | 6 nM | Ki (human factor XIIa [7]): 13000 nM; Ki (human factor Xa [6]): 68 nM |
| B37 |  |  |  | Ki (human plasma kallikrein [9]): 2000 nM |
| B38 |  |  |  | Ki (human plasma kallikrein [8]): 64 nM |
| B39 |  | 145 nM |  | Ki (human factor Xa [3]): 806 nM |
| B40 |  |  |  | Ki (human plasma kallikrein [9]): 560 nM |
